Test results reported in the supplement of paper PMC12764529.
± gives the half width of the 95% confidence interval.

What was measured:
[1] = folding stability dG unfold from trypsin proteolysis; higher = more stable
In short: (§1)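 Designed mini-proteins (under 80 residues, no cysteine) in a PA-tagged cDNA display construct were digested with trypsin and chymotrypsin. Each protease was used at 11 concentrations (threefold dilutions) plus a no-protease condition, followed by sequencing. K50 was inferred by Bayesian fitting of sequencing counts, and unfolding free energy was derived against a sequence-predicted unfolded-state K50 and a shared folded-state K50, per protease or combined. Only designs with AlphaFold2 dimer inter-PAE above 15 were kept.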

[2] = folding stability dG unfold from chymotrypsin proteolysis; higher = more stable
In short: as §1

[3] = folding stability dG unfold (combined trypsin and chymotrypsin); higher = more stable
In short: as §1

Sequence | folding stability dG unfold [1] | folding stability dG unfold [2] | folding stability dG unfold [3]
SAGGLAEYIARYLQENDPRARVEAEEGDVLDGVRVIRVRVERVDDAFGGDIPSSADFILVIPAGAPPTSAGG [r19_8_TrMRF] | 1.36 ± 0.025 kcal/mol | 1.38 ± 0.1 kcal/mol | 1.38 ± 0.089 kcal/mol
SAGGKTITIKVKLENGEEKTIEVKVDEVKIEKKNGKLVITFKDGKKITIPLDKIEDMSEDEIKKLLEKSAGG [r13_925_TrROS_Hall] | 2.72 ± 0.15 kcal/mol | 3.03 ± 0.18 kcal/mol | 2.97 ± 0.2 kcal/mol
SAGGSKIPLDNIKVITIMYNPKEGMYWISIRFPNNGKEVVFPYEDAPKILEKFPEIKEIEVYPFPPSAGGSA [r2_159_TrROS] | 2.25 ± 0.11 kcal/mol | 2.76 ± 0.036 kcal/mol | 2.59 ± 0.084 kcal/mol
SAGGSATQVVLKITIKINKGEKEETREIVLPATDPEEAIAKVKKELKEKGIDAEIEELEILPVDLLSAGGSA [r15_165_JUSTAS] | 1.31 ± 0.089 kcal/mol | 0.919 ± 0.059 kcal/mol | 1.27 ± 0.15 kcal/mol
SAGGEEKVITKEETITVPPDAGTITISSNEVIKDPNSSYTYYVKESKTVSRDPNSNVYTITLKIKVEKSAGG [r13_574_JUSTAS] | -0.0992 ± 0.12 kcal/mol | 0.917 ± 0.43 kcal/mol | 0.647 ± 0.33 kcal/mol
SMKITIVNKNGEKKEIEVTAKDGKKYKITVFKDKELVIKVEETTPDGKKKPVKVIKAKSLEEALEALKKASA [r9_942_TrROS_Hall] | 2.17 ± 0.14 kcal/mol | 2.83 ± 0.057 kcal/mol | 2.38 ± 0.32 kcal/mol
SAGGSIKVFESESTDPATGKVTTTTTTVTESSEEPTPEAAKNTPPGETTTTTTTTTTTSPVPPGTAASAGGS [r8_274_JUSTAS] | 0.476 ± 0.057 kcal/mol | 0.67 ± 0.022 kcal/mol | 0.54 ± 0.14 kcal/mol
SYSIDTSKIEEAAAALPPNAVAELELTANVPESGFTLKLKVTITVDPAGKVTRITFTDPATGKKIATVDVGS [r1_165_JUSTAS] | 2.47 ± 0.069 kcal/mol | 1.52 ± 0.11 kcal/mol | 2.1 ± 0.12 kcal/mol
SAGGSAGGMVVRVTLPDGTVVTFEFESEEEFRKEFAASLGLAPDEIPEERIVSVERLSPEEYRSSAGGSAGG [r6_588_JUSTAS] | 1.26 ± 0.039 kcal/mol | 1.64 ± 0.11 kcal/mol | 1.59 ± 0.086 kcal/mol
MKEITVTLPVPEEVLAAIRAGKPLPLEEIKERVKEEIAKRLGYKNVTIKSVKVEKLPDGSLVIKVKVEFLPS [r1_290_JUSTAS] | 5.45 ± 0.43 kcal/mol | 3.58 ± 0.044 kcal/mol | 4.15 ± 0.087 kcal/mol
SAGGSAGGSAGSSILSVVEEDPETGLRVVLSPVSDVPVRIVTKRIPEKEEIKVLEVERLPSAGGSAGGSAGG [r11_1066_JUSTAS] | -0.603 ± 0.38 kcal/mol | -0.758 ± 0.37 kcal/mol | -0.746 ± 0.43 kcal/mol
SAGGSMVKEIEIPVPEDWTPEDAVEAAREYLEANPELENVIVRFTLPDGTPLVVEIKPGGKIVKVTPESAGG [r13_690_JUSTAS] | 1.71 ± 0.069 kcal/mol | 3.26 ± 0.07 kcal/mol | 2.83 ± 0.15 kcal/mol
SAGGSAGGSSYLVEVISRKKVKVGGKERYVVPVRIPDNGELVELVVSEDVAKNIKPGDVVVLSSAGGSAGGS [r12_382_TrMRF] | -0.00477 ± 0.058 kcal/mol | -0.00598 ± 0.12 kcal/mol | 0.0239 ± 0.12 kcal/mol
SAGGSAGGSMTFSSEEEAEAFIAQLPPDSEVEVEIKDPNTDKTTKYKIKVPPEQPVYSPKGVLSAGGSAGGS [r12_393_JUSTAS] | 0.308 ± 0.11 kcal/mol | 1.5 ± 0.063 kcal/mol | 1.2 ± 0.14 kcal/mol
SAGGSAGGSAGAPPDVEEVTVTVTITNPDGSTTTTTVTATPEELAALAAAPGRPTAVSAESAGGSAGGSAGG [r17_313_JUSTAS] | 0.635 ± 0.072 kcal/mol | 0.486 ± 0.015 kcal/mol | 0.595 ± 0.17 kcal/mol
SAGGSAGGSAGGKKYKIKVYVKDKKTKKWKKIKEIEVDTKEEALEAIKKLPPNYEVKIVPSAGGSAGGSAGG [r7_307_TrROS_Hall] | 4.11 ± 0.14 kcal/mol | 5.04 ± 0.068 kcal/mol | 4.91 ± 0.14 kcal/mol
SIYIKIPIDEIKPEWNKNGMITLEIKYPNGKTIKFEFPPGFQIDNIEVIKPGWIMFEFEIVPPADPEDAKSA [r9_501_TrROS] | 1.76 ± 0.12 kcal/mol | 3.06 ± 0.082 kcal/mol | 2.2 ± 0.16 kcal/mol
SAGGMTLTLVLEANPPEAVEVAVARLLRELGFPDELKIEIDPVGDDKGRIIYPVTIEVNVPELAEKASAGGS [r8_85_TrMRF] | 2.19 ± 0.042 kcal/mol | 2.62 ± 0.036 kcal/mol | 2.41 ± 0.13 kcal/mol
SAGGMMEVEEREVEIELELEPGQSIEEALRELLGLEEGDEIVDVEVEVDPETRKVKIRVVILRPPEEESAGG [r13_828_TrROS_Hall] | 4.24 ± 0.39 kcal/mol | 2.79 ± 0.2 kcal/mol | 3.68 ± 0.52 kcal/mol
SAGGSAGGMYTKTYNVPPDWKVTATATAPGGATVTDSSAPNGNFTLTFPASLADATTFTVTVTPSAGGSAGG [r6_237_JUSTAS] | -0.869 ± 0.47 kcal/mol | 0.641 ± 0.13 kcal/mol | 0.285 ± 0.14 kcal/mol
SAGGSAGGSMKYLVTFPEGGPVPLPDGTSVALAPGAVLELETEEEAEALKALNPGRPVVITPVSAGGSAGGS [r12_987_JUSTAS] | 1.51 ± 0.037 kcal/mol | 1.35 ± 0.03 kcal/mol | 1.47 ± 0.05 kcal/mol
